Experimental findings from patent US20240239892A1 (SUZHOU KANOVA BIOPHARMACEUTICAL, published 2024) are described below.

Residue numbers refer to the chain shown, from its start.

Assay [1] concerns the target T1, PD-1 (analyte of the SPR assay of Example 3) (human, UniProt Q15116 21-167, limits assumed).
T1 construct: also called human PD-1
Kind of assay: SPR (Biacore 8K), antibody captured by anti-human Fc, PD-1 as analyte. As to the method: Anti-human Fc gamma specific antibody (Jackson ImmunoResearch #109-005-098) was immobilized onto the sensor chip using amine coupling method. […] After equilibration, PD-1 was injected for 200 seconds (association phase) followed by the injection of running buffer for 600s (dissociation phase). Responses of reference flow cell (flow cell 1) were subtracted from those of humanized antibodies flow cells during each cycle. The surface was regenerated before the injection of other humanized antibodies. The process was repeated until all antibodies are analyzed. The off-rates of humanized antibodies were obtained from fitting the experimental data locally to 1:1 interaction model using the Biacore 8K evaluation software. The antibodies were ranked by their dissociation rate constants (off-rates, kd).

The target in assay [2] is T2, chimeric PD-1 receptor on Jurkat cells (Jurkat/PD-1-CD3z/NF-luci cells) (human, UniProt Q15116 25-191; P20963 52-164, limits assumed). Kind of assay: cell-based or functional assay.
Assay [3] deals with T3, cynomolgus PD-1/His protein (ACROBiosystems #PD1-C5223) (cynomolgus, UniProt B0LAJ3 25-170).
T3 construct: Commercial protein
Kind of assay: ELISA, plate coated with cynomolgus PD-1/His. As to the method:
(§1) MaxiSorp 96-well plates (NUNC #449824) were coated with 2 μg/mL human PD-1/His (in-house production) or cynomolgus PD-1/His protein (ACROBiosystems #PD1-C5223) in 1× PBS (50 μL/well). Plates were incubated at 4° C. overnight. Coating solution was removed and plates were washed once with 200 μL/well PBST (1× PBS containing 0.05% tween-20). Then 200 μL/well blocking buffer (1× PBS with 0.05% tween-20, 3% BSA) was added and incubated at room temperature for 1 hour. Blocking buffer was removed and plates were washed with three times with 200 μL/well PBST. […] Plates were incubated at room temperature for 2 hours. Antibodies in the wells were removed and plates were washed three times with 200 μL/well PBST. Goat anti-human IgG (H&L)-HRP secondary antibody (Jackson Immuno Research #109-035-088) was diluted 1:5000 in 1× PBS and added to each well (50 μL/well). Plates were incubated at room temperature for 1 hour. Secondary antibody was removed and plates were washed five times with 200 μL/well PBST. 50 μL/well TMB (eBioscience #85-00-4201-56) was added and plates were incubated at room temperature for several minutes. Then 50 μL/well 2N H2SO4 was added to stop the reaction. Optical density was measured at 450 nm.
On the technique in general: An ELISA detects its analyte on a solid surface through an enzyme-linked reagent.

Assay [4] deals with T2, chimeric PD-1 receptor on Jurkat cells …. Kind of assay: flow cytometry on human PD-1-expressing Jurkat cells. On the procedure:
Then cells were washed once by FACS buffer (PBS with 2% FBS) and incubated with Alexa Fluor 594 AffiniPure Goat Anti-human IgG secondary antibody (Jackson ImmunoResearch #109-585-088) at 4° C. for 30 minutes. After washed once by FACS buffer, cells were resuspended in 200 μL FACS buffer. The cells after staining were analyzed by BD LSRFortessa Flow Cytometer.
In general terms: A flow cytometer gives signals particle by particle.

The target in assay [5] is T4, his-tagged human PD-1 recombinant protein (PD-1/6His, in-house production, extracellular domain Pro21-Gln167) (human, UniProt Q15116 21-167).
T4 construct: range 21-167; also called human PD-1/His; not shown: 6His tag
As to the kind of experiment: ELISA, plate coated with human PD-1/His; human PD-1. As to the method: as §1

T1 sequence (Q15116 21-167 limits assumed): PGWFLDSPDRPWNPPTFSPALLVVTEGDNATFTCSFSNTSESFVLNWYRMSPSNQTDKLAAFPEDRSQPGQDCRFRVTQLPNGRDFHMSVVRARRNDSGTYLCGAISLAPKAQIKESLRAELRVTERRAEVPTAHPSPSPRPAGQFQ
T2 sequence (Q15116 other isoform, or with tags, fused parts or gaps mutant limits assumed): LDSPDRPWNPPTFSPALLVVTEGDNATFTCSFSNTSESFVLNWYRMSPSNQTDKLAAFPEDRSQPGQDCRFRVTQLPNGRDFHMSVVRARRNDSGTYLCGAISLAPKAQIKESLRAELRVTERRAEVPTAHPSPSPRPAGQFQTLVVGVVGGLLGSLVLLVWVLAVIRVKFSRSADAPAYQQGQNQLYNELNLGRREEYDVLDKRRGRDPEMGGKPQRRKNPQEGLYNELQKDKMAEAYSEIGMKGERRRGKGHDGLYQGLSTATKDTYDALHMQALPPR
T3 sequence (B0LAJ3 entry or part of it limits assumed): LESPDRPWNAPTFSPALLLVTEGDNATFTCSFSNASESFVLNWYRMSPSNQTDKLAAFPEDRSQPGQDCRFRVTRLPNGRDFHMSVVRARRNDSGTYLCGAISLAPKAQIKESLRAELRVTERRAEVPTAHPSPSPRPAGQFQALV
T4 sequence (Q15116 21-167 limits assumed): as the sequence (Q15116 21-167 limits assumed) above

B1: VH6 + VL1 (antibody, human IgG1, kappa, V domains shown)
VH: EVQLVESGGGLVQPGGSLRLSCAASGFTFSSYGMSWVRQAPGKRLEWVAIISGGGRDIYYLDSVKGRFTISRDNSKNTLYLQMNSLRAEDTAVYYCSSPIYDAYSFAYWGQGTLVTVSS
VL: EIVMTQSPATLSVSPGERATLSCRASQTISNNLHWYQQKPGQAPRLLIYYASQSISGIPARFSGSGSGTEFTLTISSLQSEDFAVYYCQQSYSWPLTFGGGTKLEIKR
notes: Humanized full-length IgG expressed in HEK293; For SPR it was captured from culture medium through its Fc; also called HC1 + LC1
For the molecule B1, in assay [1], the Kd (usually the constant that tells how readily two partners part at equilibrium) is 3.57 nM, the dissociation rate constant (koff) (usually the rate constant with which the complex falls apart) was 0.000404 s⁻¹ and the on-rate constant (kon) (commonly a measure of how fast the partners come together) turned out to be 113000 M⁻¹ s⁻¹.

B2: VH7 + VL1 (antibody, human IgG1, kappa, V domains shown)
VH: B1 VH with R44G, T78N
VL: B1 VL
notes: Humanized full-length IgG expressed in HEK293; also called HC2 + LC1
In assay [1], B2 showed a dissociation constant (Kd) of 3.04 nM, a dissociation rate constant (koff) of 0.000317 s⁻¹ and a kon of 104000 M⁻¹ s⁻¹.

B3: anti-PD-1 antibody VH7+VL6 (antibody, human IgG1, kappa, V domains shown)
VH: B1 VH with R44G, T78N
VL: B1 VL with M4L, Q37H, Y49K, A60S, E70D, Y87F
notes: also called HC2 + LC2
B3: the “EC50 (nM), inhibition of luciferase signal” value in assay [2] came to 0.38 nM. For the same molecule, the EC50 – broadly, the concentration needed to bring the measured effect to its halfway point – in assay [3] turned out to be 0.4 nM; in assay [4], 2.16 nM; in assay [5] it was 0.1 nM. Further, binding in assay [1] was put at a Kd of 1.41 nM. In addition, the koff in assay [1] is 0.000218 s⁻¹. This molecule gave a kon in assay [1] of 154000 M⁻¹ s⁻¹.

B4: VH6 + VL6 (antibody, human IgG1, kappa, V domains shown)
VH: B1 VH
VL: B1 VL with M4L, Q37H, Y49K, A60S, E70D, Y87F
notes: Humanized full-length IgG expressed in HEK293; also called HC1 + LC2
In assay [1], B4 showed a Kd of 0.812 nM, an off-rate constant (koff) of 0.000127 s⁻¹ and a kon of 156000 M⁻¹ s⁻¹.

B5: Chimeric VH + VL (antibody, human IgG1, kappa, V domains shown)
VH: EVKLVESGGGLVKPGGSLKLSCAASGFTFSSYGMSWVRQTPEKRLEWVAIISGGGRDIYYLDSVKGRFTISRDNAKNNLYLQMSSLRSEDTAFYYCSSPIYDAYSFAYWGQGTLVTVSA
VL: DIVLVQSPATLSVTPGDSVSLSCRASQTISNNLHWYHQKSHESPRLLIKYASQSISGIPSRFSGSGSGTDFTLSINSVETEDFGMYFCQQSYSWPLTFGAGTNLELKR
notes: also called Parental mouse VH+VL combined with human Fc; parental antibody
For the molecule B5, in assay [1], binding was characterised by a dissociation constant (Kd) of 0.787 nM, the off-rate (koff) came out at 0.000163 s⁻¹ and the kon was found to be 207000 M⁻¹ s⁻¹.
